Results on 1 molecule are retold here after US7981423B2, “Rage fusion proteins” (Transtech Pharma, Inc., priority 2004, dated 2011).

One assay has as its target T1, amphoterin (Ampho) (Homo sapiens, UniProt P09429).
T1 sequence (P09429 1-215): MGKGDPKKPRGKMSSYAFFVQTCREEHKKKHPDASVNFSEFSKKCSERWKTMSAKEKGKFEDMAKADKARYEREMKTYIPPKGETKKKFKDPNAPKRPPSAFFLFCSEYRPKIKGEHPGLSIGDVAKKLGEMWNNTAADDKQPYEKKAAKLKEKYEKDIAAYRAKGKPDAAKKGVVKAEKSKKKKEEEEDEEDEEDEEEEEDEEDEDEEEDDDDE
Nature of the assay: In vitro ligand binding ELISA, immobilized amphoterin. The following applies: various dilutions of fusion protein; FIG. 7. The procedure: For example, the RAGE fusion protein may be used in a binding assay to identify potential RAGE ligands. In one example embodiment of such a binding assay, a known RAGE ligand may coated onto a solid substrate (e.g., Maxisorb plates) at a concentration of about 5 micrograms per well, where each well contains a total volume of about 100 microliters (μL). The plates may be incubated at 4° C. overnight to allow the ligand to absorb. Alternatively, shorter incubation periods at higher temperature (e.g., room temperature) may be used. […] The fusion protein bound to the immobilized ligand may be detected in a variety of ways. […] The bound complex may be detected by adding the alkaline phosphatase substrate, para-nitrophenylphosphate (PNPP), and measuring conversion of PNPP to para-nitrophenol (PNP) as an increase in absorbance at 405 nm. […] Binding was detected by the addition of an immunodetection complex containing a monoclonal mouse anti-human IgG1 diluted 1:11,000 to a final assay concentration (FAC) of 21 ng/100 μL, a biotinylated goat anti-mouse IgG diluted 1:500, to a FAC of […], and an avidin-linked alkaline phosphatase. […] Binding of the complex to the immobilized fusion protein was quantified by measuring conversion of PNPP to para-nitrophenol (PNP) which was-measured spectrophotornetrically at 405 nm. […]
In general terms: An ELISA detects its analyte on a solid surface through an enzyme-linked reagent.

The subject of another assay is Zucker diabetic rats. As to the kind of experiment: Diabetic rat model of restenosis (balloon injury of left common carotid artery). The format is in vivo. The procedure:
In these experiments, balloon injury of left common carotid artery was performed in Zucker diabetic and nondiabetic rats using standard procedure. […] A maintenance dose was delivered every other day until day 7 after injury (i.e., at day 1, 3, 5 and 7 after injury). The maintenance dose was high=1 mg/animal for one group, or low=0.3 mg/animal for the second group. To measure vascular smooth muscle cell (VSMC) proliferation, animals were sacrificed at 4 days and 21 days after injury.
For the measurement of cell proliferation, 4 day animals received intraperitoneal injection of bromodeoxyuridine (BrDdU) 50 mg/kg at 18, 12, and 2 hours before euthanasia. After sacrifice, the entire left and right carotid arteries were harvested. Specimens were stored in Histochoice for at least 24 hours before embedding. Assessment of VSMC proliferation was performed using mouse anti-BrdU monoclonal antibody. A fluorescence labeled goat anti-mouse secondary antibody was applied. The number of BrdU-positive nuclei per section were counted by two observers blinded to the treatment regimens.
The remaining rats were sacrificed at 21 days for morphometric analysis. Morphometric analyses were performed by an observer blinded to the study groups, using computerized digital microscopic planimetry software Image-Pro Plus on serial sections, ([…]) carotid arteries stained by Van Gieson staining. All data were expressed as mean±SD. Statistical analysis was performed with use of SPSS software. Continuous variables were compared using unpaired t tests. A values of P≦0.05 was considered to be statistically significant.

Assay [1] addresses immobilized known RAGE ligands (HMG1B, CML, A beta). Nature of the assay: Saturation binding of TTP-4000 to immobilized known RAGE ligands. The following applies: fusion protein 0 to 360 nM; Graphpad Prizm; FIG. 15; figures not given. The procedure: The ligands are immobilized on a microtiter plate and incubated in the presence of increasing concentrations of fusion protein from 0 to 360 nM. The fusion protein-ligand interaction is detected using a polyclonal antibody conjugated with alkaline phosphatase that is specific for the IgG portion of the fusion chimera. […] HMG1B=Ampoterin, CML=Carboxymethyl Lysine, A beta=Amyloid beta 1-40.

Where [2] appears, read: High dose 1.0 mg/animal qod × 4, loading dose 3 mg/animal, IP, 21 days, mean±SD.
Setting [3] is: Low dose 0.3 mg/animal qod × 4, loading dose 3 mg/animal, IP, 21 days, mean±SD.

B1: TTP-4000: four domain RAGE fusion protein (SEQ ID NO: 32): human RAGE amino acids 1-251 linked to CH2 and CH3 domains of human IgG (protein)
chain: MAAGTAVGAWALVLSLWGAVVGAQNITARIGEPLVLKCKGAPKKPPQRLEWKLNTGRTEAWKVLSPQGGGPWDSVARVLPNGSLFLPAVGIQDEGIFRCQAMNRNGKETKSNYRVRVYQIPGKPEIVDSASELTAGVPNKVGTCVSEGSYPAGTLSWHLDGKPLVPNEKGVSVKEQTRRHPETGLFTLQSELMVTPARGGDPRPTFSCSFSPGLPRHRALRTAPIQPRVWEPVPLEEVQLVVEPEGGAVAPPSVFLFPPKPKDTLMISRTPEVTCVVVDVSHEDPEVKFNWYVDGVEVHNAKTKPREEQYNSTYRVVSVLTVLHQDWLNGKEYKCKVSNKALPAPIEKTISKAKGQPREPQVYTLPPSRDELTKNQVSLTCLVKGFYPSDIAVEWESNGQPENNYKTTPPVLDSDGSFFLYSKLTVDKSRWQQGNVFSCSVMHEALHNHYTQKSLSLSPGK
B1: the “binding to immobilized amphoterin (absorbance at 405 nm)” value with amphoterin (Ampho) is recorded as “specifically interact”. Moreover, the “vascular smooth muscle cell proliferation (BrdU proliferating cells, in words)” value with Zucker diabetic rats (4 days after injury, dose-responsive, FIG. 13B) is reported as “significantly reduced”. In the assay with Zucker diabetic rats (setting [2]), this molecule yielded a Luminal area of 0.16 ± 0.02 mm^2 and a Medial area of 0.11 ± 0.01 mm^2. Also, in the assay on Zucker diabetic rats (setting [3]), the I/M ratio was 1.61 ± 0.26, the Luminal area is 0.18 ± 0.04 mm^2 and the Medial area was 0.11 ± 0.02 mm^2. In the assay on Zucker diabetic rats (dose-responsive, FIG. 13A), the “intima/media ratio (in words)” value is “significantly reduced”. In assay [1], the “Relative Kds” value is reported as “match with established literature values”.
